Assay [1] has as its target SlNRC2-Twin-Strep-HA (Solanum lycopersicum (tomato)). Briefly: native gel or EMSA; Blue Native-PAGE (3-12% Bis-Tris) of SlNRC2-Twin-Strep-HA variants eluted from Strep-Tactin XT resin out of nrc2/3/4 N. benthamiana leaf extract; immunoblot.
The target of assay [2] is Solanum lycopersicum (tomato) NRC2, full-length, purified from insect cells (Solanum lycopersicum (tomato)). The experiment in a line: cryo-EM structure; apparently dimeric SlNRC2 specimen, 0.7 mg ml^-1; dimer at 2.84 Å and tetramer at 3.17 Å from one data set, C2 symmetry.
The target is the same in assay [3]. The experiment in a line: SEC; gel filtration of purified SlNRC2 after removal of MBP; Buffer E (10 mM Tris-HCl pH 8.0, 150 mM NaCl, 1 mM dithiothreitol); Superdex 200 Increase 10/300 GL. A general note: In gel filtration, larger molecules generally elute earlier.

Several values for one entry are separate records, joined by “and”; a condition that tells them apart may be missing. Identical values can stand only once.

The record followed here is article PMC11338831.

With SlNRC2-Twin-Strep-HA (natural protein), the stoichiometry N (as a rule, a count of units in the complex or per binding partner) in assay [1] is 2 and 4.
On to “Solanum lycopersicum (tomato) NRC2, full-length, purified from insect cells (natural protein)”, for which the stoichiometry N was 2 and 4 in assay [2]; 2 in assay [3].
